Experiments:
[1] = target: β-Arrestin1 (human (endogenous in Caco-2 and HCT116)) (UniProt P49407); test: proximity ligation; Duolink II red kit on fixed, permeabilised cells; PTEN-/- HCT116 cells transfected 24 hr with GFP-tagged EV or PTEN constructs, HCT116 cells as positive control; signal as AI units, n = 35 cells per condition in triplicate
[2] = target: β-Arrestin1 (human (endogenous in Caco-2 and HCT116)) (UniProt P49407); test: co-IP; competition in cells: Caco-2 or HCT116 cells treated with 10 μM pep24 or 10 μM scrambled control peptide for 24 hr, then β-Arrestin1 immunoprecipitated and ARHGAP21 blotted

Sequence of β-Arrestin1 (human (endogenous in Caco-2 and HCT116)) (P49407 whole entry): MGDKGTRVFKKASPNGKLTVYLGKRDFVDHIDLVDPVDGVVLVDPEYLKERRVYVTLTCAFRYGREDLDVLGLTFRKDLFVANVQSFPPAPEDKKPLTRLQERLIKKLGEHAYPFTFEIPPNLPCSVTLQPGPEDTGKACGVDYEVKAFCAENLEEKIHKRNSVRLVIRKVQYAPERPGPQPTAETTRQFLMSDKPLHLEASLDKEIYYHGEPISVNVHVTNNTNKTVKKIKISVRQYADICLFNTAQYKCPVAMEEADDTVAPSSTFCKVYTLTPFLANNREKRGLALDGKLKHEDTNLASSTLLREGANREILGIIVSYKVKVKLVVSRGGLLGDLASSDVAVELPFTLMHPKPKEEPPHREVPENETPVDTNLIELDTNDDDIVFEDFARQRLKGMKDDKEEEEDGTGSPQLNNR
Sequence of cell permeant β-Arrestin1-ARHGAP21 binding disruptor peptide pep24 (Q5T5U3 1331-1355): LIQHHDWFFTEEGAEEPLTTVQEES

Substance | PLA interaction AI [1] [AI units] | fold change of β-Arrestin1-associated ARHGAP21 (ADU), pep24 vs control peptide, Caco-2 cells [2] [fold change] | fold change of β-Arrestin1-associated ARHGAP21 (ADU), pep24 vs control peptide, HCT116 cells [2] [fold change]
GFP-labeled isolated PTEN C2 domain (domain or fragment) | 38.3 |  | 
cell permeant β-Arrestin1-ARHGAP21 binding disruptor peptide pep24 (from UniProt Q5T5U3 1331-1355) |  | 0.63 | 0.39
